Here are results for 2 substances from publication PMC9083094.

Test [1] concerns the target Aβ_(C18C33), mutant Aβ42 peptide containing an intramolecular disulfide bond. Description: SDS-PAGE.
The target is the same in test [2]. The test can be described thus: SDS-PAGE. This is another data set of the same source.
Test [3] has the same target. Description: native MS.
For test [4] the target is unchanged. The test can be described thus: native MS. The source holds these as a separate data set.
Test [5] has the same target. Description: SEC-MS.
Test [6] shares this target. Description: native MS. The source holds these as a separate data set.
The target of test [7] is Aβ_(C24C29), mutant Aβ42 peptide with an intramolecular disulfide bond. The test can be described thus: SDS-PAGE.

“And” between values parts separate entries of the source, which are not always exact repeats. Equal entries are not always repeated.

For orientation: stoichiometry N means the number of molecules, sites or subunits per partner or assembly. In the case of “Aβ_(C18C33), mutant Aβ42 peptide containing an intramolecular disulfide bond”, the stoichiometry N was 2 in test [1]; 2 in test [2]; 4 in test [3]; 4 in test [4]; 2 in test [5]; 2 and 4 in test [6].
For the substance “Aβ_(C24C29), mutant Aβ42 peptide with an intramolecular disulfide bond”, the stoichiometry N in test [7] was 3 and 4.
